Data as given in patent CN102050878A (NAT ENGINEERING RES CT OF ANTIBODY MEDICINE SHANGHAI CO LTD, dated 2011).

Molecular target: T1, 人CD20 (Raji细胞表面) (human, UniProt P11836 1-297)
T1 construct: whole, on cells; The target is native on the B lymphoma lines Raji (and Daudi); No recombinant CD20 was used; also called 高表达CD20的Raji细胞
T1 sequence (looked up): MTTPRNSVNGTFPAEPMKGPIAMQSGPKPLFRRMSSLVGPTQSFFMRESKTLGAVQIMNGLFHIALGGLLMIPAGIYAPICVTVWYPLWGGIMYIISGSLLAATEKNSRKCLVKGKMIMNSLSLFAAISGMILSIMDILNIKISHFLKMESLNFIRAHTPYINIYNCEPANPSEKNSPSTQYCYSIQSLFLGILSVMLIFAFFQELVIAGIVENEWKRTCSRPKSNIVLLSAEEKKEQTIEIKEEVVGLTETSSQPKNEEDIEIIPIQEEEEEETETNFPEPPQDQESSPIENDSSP
Experiment: in vitro antigen binding assay, flow cytometry on Raji cells

B1: 抗人CD20人源化抗体hu3D9 (hu3D9Hb/hu3D9Lb) (antibody, human IgG1, kappa, V domains shown)
VH: EVQLVESGGGLVQPGGSLRLSCAASGYTFTNYWMQWVRQAPGQGLEWISAIYPGDGDTRYTQKFKGRATLSADKSKNTAYLQMNSLRAEDTAVYYCAREGAYGYDDGMDYWGQGTLVTVSS
VL: DIVLTQSPSSLSASVGDRVTITCRASQSIRNNLHWYQQKPGKAPKLLIKYASQSISGVPSRFSGSGSGTDFTLTISSLQPEDFATYYCQQSNSWPLTFGQGTKVEIKR
notes: Humanised antibody with 12 mouse framework residues kept
B1: binds.
